One block for each binder: values may come before it.
Key:
[1] = biological target: T1, human ILT2 (LILRB1) expressed at the surface of transfected cells (human, UniProt Q8NHL6 24-650); assay: flow cytometry titration on HEK293T cells transfected with wild-type ILT2
T1 construct: also called CHO-ILT2; CHO ILT2 cell line

[2] = biological target: T2, ILT-2_6xHis recombinant protein (human, UniProt Q8NHL6 24-458); assay: SPR, antibody captured on Protein-A, soluble ILT2 analyte
T2 construct: monomers purified by SEC; also called recombinant 6xHIS tagged ILT2; recombinant human ILT2 proteins
Method: (§1) Measurements were performed on a Biacore T200 apparatus (Biacore GE Healthcare) at 25° C. In all Biacore experiments HBS-EP+(Biacore GE Healthcare) and NaOH 10 mM served as running buffer and regeneration buffer respectively. Sensorgrams were analyzed with Biacore T100 Evaluation software. Protein-A was purchased from (GE Healthcare). Human ILT2 recombinant proteins were cloned, produced and purified at Innate Pharma. Protein-A proteins were immobilized covalently to carboxyl groups in the dextran layer on a Sensor Chip CM5. The chip surface was activated with EDC/NHS (N-ethyl-N′-(3-dimethylaminopropyl) carbodiimidehydrochloride and N-hydroxysuccinimide (Biacore GE Healthcare)). Protein-A was diluted to 10 μg/ml in coupling buffer (10 mM acetate, pH 5.6) and injected until the appropriate immobilization level was reached (i.e. 600 RU). Deactivation of the remaining activated groups was performed using 100 mM ethanolamine pH 8 (Biacore GE Healthcare). […] For blank subtraction, cycles were performed again replacing ILT2 proteins with running buffer. The monovalent affinity analysis was conducted following a regular Capture-Kinetic protocol as recommended by the manufacturer (Biacore GE Healthcare kinetic wizard). Seven serial dilutions of human ILT2 proteins, ranging from 1.95 nM to 250 nM were sequentially injected over the captured antibodies and allowed to dissociate for 10 min before regeneration. The entire sensorgram sets were fitted using the 1:1 kinetic binding model or two state reaction model, as a function of the profile of the curves.

[3] = biological target: T3, human ILT2 on primary NK cells (human, UniProt Q8NHL6 24-650); assay: cell-based or functional assay
Mutant D4-1B = biological target: T4, Mutant D4-1B; assay: flow cytometry titration on HEK293T cells transfected with ILT2 mutant 4-1b
T4 construct: read as S304F; also called ILT2 mutant 4-1b; mutant 4-1b

[4] = biological target: T5, anchored ILT2 D3 domain protein (human); assay: flow cytometry on CHO cells expressing the anchored ILT2 D3 domain protein (SEQ ID NO: 48); stacked histograms, axis without numbers, no control histogram
T5 construct: on CHO cells; the entry includes leader remnant, V5 tag and CD24 GPI anchor signal

[5] = biological target: T3, human ILT2 on primary NK cells; assay: flow cytometry, primary NK cells
[6] = biological target: T6, anchored ILT2 D1-D2-D3 domain protein (human, UniProt Q8NHL6 24-321); assay: flow cytometry, CHO cells with anchored ILT2 domain proteins
T6 construct: on CHO cells; the entry includes leader remnant, V5 tag and CD24 GPI anchor signal

[7] = biological target: T7, anchored ILT2 D1-D2 domain protein (human, UniProt Q8NHL6 24-222); assay: as above
T7 construct: on CHO cells; the entry includes leader remnant, V5 tag and CD24 GPI anchor signal

[8] = biological target: T8, anchored ILT2 D2 domain protein (human); assay: as above
T8 construct: on CHO cells; the entry includes leader remnant, V5 tag and CD24 GPI anchor signal

[9] = biological target: T9, anchored ILT2 D2-D3 domain protein (human, UniProt Q8NHL6 122-321); assay: as above
T9 construct: on CHO cells; the entry includes leader remnant, V5 tag and CD24 GPI anchor signal

Mutant D4-4 = biological target: T10, Mutant D4-4; assay: flow cytometry titration on HEK293T cells transfected with ILT2 mutant 4-4
T10 construct: also called ILT2 mutant 4-4; mutant 4-4

[10] = biological target: T11, anchored ILT2 D1 domain protein (human); assay: flow cytometry on CHO cells expressing the anchored ILT2 D1 domain protein (SEQ ID NO: 46); stacked histograms, axis without numbers
T11 construct: on CHO cells; the entry includes leader remnant, V5 tag and CD24 GPI anchor signal

[11] = biological target: T12, human ILT7 (LILRA4) on CHO cells (human, UniProt P59901 28-494); assay: flow cytometry, CHO transfectants
T12 construct: also called CHO ILT7 cell line

[12] = biological target: T13, human ILT3 (LILRB4) on CHO cells (human, UniProt Q8NHJ6 24-443); assay: flow cytometry, CHO transfectants
T13 construct: also called CHO ILT3 cell line

[13] = biological target: T14, human ILT6 (LILRA3) on CHO cells (human, UniProt Q8N6C8 24-434); assay: flow cytometry, CHO transfectants
T14 construct: also called CHO ILT6 cell line; human ILT-6 polypeptide

[14] = biological target: T15, human ILT1 (LILRA2) on CHO cells (human, UniProt Q8N149 24-475); assay: flow cytometry, CHO transfectants
T15 construct: also called CHO ILT1 cell line

[15] = biological target: T16, human ILT4 (LILRB2) on CHO cells (human, UniProt Q8N423 23-597); assay: flow cytometry, CHO transfectants
T16 construct: also called CHO ILT4 cell line

[16] = biological target: T17, human ILT8 (LILRA6) on CHO cells (human, UniProt Q6PI73 24-477); assay: flow cytometry, CHO transfectants
T17 construct: also called CHO ILT8 cell line

[17] = biological target: T18, human ILT5 (LILRB3) on CHO cells (human, UniProt O75022 24-626); assay: flow cytometry, CHO transfectants
T18 construct: also called CHO ILT5 cell line

ILT2 mutant 4-1 = biological target: T19, ILT2 mutant 4-1 (human, UniProt Q8NHL6 24-650); assay: flow cytometry titration on HEK293T cells transfected with ILT2 mutant 4-1
T19 construct: transfected in HEK293T cells

ILT2 mutant 4-2 = biological target: T20, ILT2 mutant 4-2 (human, UniProt Q8NHL6 24-650); assay: flow cytometry titration on HEK293T cells transfected with ILT2 mutant 4-2
T20 construct: transfected in HEK293T cells

[18] = biological target: T1, human ILT2 (LILRB1) expressed at the …; assay: flow cytometry, CHO-ILT2 cells
Method: Cells were incubated with various concentrations of unlabeled anti-ILT2 antibodies from 30 μg/ml to 5×10-⁴ μg/ml, for 30 minutes at 4° C. After washes with staining buffer, cells were incubated for 30 min at 4° C. with Goat anti-human H+L AF488 secondary antibody (Jackson Immunoresearch #109-546-088) or Goat anti-mouse H+L AF488 secondary antibody for commercially available antibodies (Jackson Immuoresearch #115-545-146). Fluorescence was measured on an Accury C6 flow cytometer equipped with an HTFC plate loader.

[19] = biological target: T21, anchored ILT2 D3-D4 domain protein (human, UniProt Q8NHL6 223-650); assay: flow cytometry, CHO cells with anchored ILT2 domain proteins
T21 construct: on CHO cells; the entry includes leader remnant, V5 tag, and the ILT2 transmembrane and cytoplasmic parts

[20] = biological target: T22, anchored ILT2 D2-D3-D4 domain protein (human, UniProt Q8NHL6 122-650); assay: as above
T22 construct: on CHO cells; the entry includes leader remnant, V5 tag, and the ILT2 transmembrane and cytoplasmic parts

ILT2 mutant 2 = biological target: T23, ILT2 mutant 2 (human, UniProt Q8NHL6 24-650); assay: flow cytometry titration on HEK293T cells transfected with ILT2 mutant 2
T23 construct: transfected in HEK293T cells; also called M2

[21] = biological target: T24, anchored ILT2 D4 domain protein (human, UniProt Q8NHL6 322-650); assay: flow cytometry on CHO cells expressing the anchored ILT2 D4 domain protein (SEQ ID NO: 49); stacked histograms, axis without numbers
T24 construct: on CHO cells; the entry includes leader remnant, V5 tag, and the ILT2 transmembrane and cytoplasmic parts

ILT2 mutant 1 = biological target: T25, ILT2 mutant 1 (human, UniProt Q8NHL6 24-650); assay: flow cytometry titration on HEK293T cells transfected with ILT2 mutant 1
T25 construct: transfected in HEK293T cells; also called M1

[22] = biological target: T2, ILT-2_6xHis recombinant protein; assay: SPR, antibody captured on Protein-A, soluble ILT2 analyte; two state fit
Method: as §1, with “Seven serial dilutions of human ILT2 proteins, ranging from 1.95 nM to 250 nM were sequentially injected over the captured antibodies and allowed to dissociate for 10 min before regeneration. The entire sensorgram sets were fitted using the 1:1 kinetic binding model or two state reaction model, as a function of the profile of the curves.” left out

[23] = biological target: T24, anchored ILT2 D4 domain protein; assay: flow cytometry, CHO cells with anchored ILT2 domain proteins

T2 sequence (Q8NHL6 other isoform, or with tags, fused parts or gaps limits assumed): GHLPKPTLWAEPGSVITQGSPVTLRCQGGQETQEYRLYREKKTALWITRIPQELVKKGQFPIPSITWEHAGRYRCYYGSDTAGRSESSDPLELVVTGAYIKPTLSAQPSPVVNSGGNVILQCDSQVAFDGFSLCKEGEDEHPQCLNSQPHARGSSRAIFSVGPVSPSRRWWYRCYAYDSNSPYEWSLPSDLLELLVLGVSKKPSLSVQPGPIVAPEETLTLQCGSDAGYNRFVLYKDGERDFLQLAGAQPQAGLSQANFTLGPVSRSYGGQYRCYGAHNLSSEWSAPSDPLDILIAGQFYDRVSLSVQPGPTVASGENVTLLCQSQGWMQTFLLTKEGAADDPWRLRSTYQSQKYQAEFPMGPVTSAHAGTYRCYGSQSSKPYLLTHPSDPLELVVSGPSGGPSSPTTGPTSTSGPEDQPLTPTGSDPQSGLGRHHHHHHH
T16 sequence (Q8N423 other isoform, or with tags, fused parts or gaps): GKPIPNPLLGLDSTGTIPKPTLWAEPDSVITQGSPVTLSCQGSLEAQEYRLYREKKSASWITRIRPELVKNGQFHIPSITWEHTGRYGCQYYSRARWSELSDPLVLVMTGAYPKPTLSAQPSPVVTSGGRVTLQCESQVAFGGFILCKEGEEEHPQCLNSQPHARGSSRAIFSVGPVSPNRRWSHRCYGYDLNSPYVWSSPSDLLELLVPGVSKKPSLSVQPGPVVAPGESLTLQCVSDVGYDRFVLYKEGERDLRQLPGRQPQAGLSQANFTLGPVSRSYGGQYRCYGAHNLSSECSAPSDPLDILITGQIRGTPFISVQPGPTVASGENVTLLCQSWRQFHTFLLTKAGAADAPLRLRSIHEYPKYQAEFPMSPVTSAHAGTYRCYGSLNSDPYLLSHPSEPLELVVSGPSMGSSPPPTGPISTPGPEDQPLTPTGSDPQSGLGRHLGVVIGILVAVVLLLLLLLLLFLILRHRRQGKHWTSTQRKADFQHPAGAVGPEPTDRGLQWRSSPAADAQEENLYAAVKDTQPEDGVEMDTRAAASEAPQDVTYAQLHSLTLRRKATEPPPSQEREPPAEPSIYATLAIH
T15 sequence (Q8N149 other isoform, or with tags, fused parts or gaps): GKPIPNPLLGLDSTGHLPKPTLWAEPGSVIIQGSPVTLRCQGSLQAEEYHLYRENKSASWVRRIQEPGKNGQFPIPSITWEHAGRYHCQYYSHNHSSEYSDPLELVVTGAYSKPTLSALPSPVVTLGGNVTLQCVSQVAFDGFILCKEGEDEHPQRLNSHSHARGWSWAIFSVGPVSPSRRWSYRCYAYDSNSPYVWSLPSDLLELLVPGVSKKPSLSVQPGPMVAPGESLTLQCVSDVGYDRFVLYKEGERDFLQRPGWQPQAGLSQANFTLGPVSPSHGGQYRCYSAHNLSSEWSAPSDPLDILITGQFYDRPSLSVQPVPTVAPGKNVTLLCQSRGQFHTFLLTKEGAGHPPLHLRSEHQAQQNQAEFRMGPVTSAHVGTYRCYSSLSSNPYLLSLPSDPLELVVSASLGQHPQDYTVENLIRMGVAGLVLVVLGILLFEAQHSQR
T14 sequence (Q8N6C8 other isoform, or with tags, fused parts or gaps): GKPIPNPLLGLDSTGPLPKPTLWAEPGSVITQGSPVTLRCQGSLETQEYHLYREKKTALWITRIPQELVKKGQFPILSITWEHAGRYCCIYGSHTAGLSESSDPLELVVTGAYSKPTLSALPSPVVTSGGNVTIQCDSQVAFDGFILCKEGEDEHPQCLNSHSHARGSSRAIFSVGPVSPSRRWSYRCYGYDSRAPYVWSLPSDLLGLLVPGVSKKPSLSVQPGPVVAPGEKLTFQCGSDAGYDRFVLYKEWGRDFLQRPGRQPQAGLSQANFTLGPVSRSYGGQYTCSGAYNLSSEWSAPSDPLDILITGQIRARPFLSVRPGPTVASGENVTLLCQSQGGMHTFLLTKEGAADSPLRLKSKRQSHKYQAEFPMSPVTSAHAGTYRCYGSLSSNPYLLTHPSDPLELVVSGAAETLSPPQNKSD
T8 sequence (chain, as listed by the source limits assumed): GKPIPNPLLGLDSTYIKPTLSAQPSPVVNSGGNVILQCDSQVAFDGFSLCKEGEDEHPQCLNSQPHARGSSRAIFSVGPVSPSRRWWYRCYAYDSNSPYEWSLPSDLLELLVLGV
T9 sequence (Q8NHL6 other isoform, or with tags, fused parts or gaps limits assumed): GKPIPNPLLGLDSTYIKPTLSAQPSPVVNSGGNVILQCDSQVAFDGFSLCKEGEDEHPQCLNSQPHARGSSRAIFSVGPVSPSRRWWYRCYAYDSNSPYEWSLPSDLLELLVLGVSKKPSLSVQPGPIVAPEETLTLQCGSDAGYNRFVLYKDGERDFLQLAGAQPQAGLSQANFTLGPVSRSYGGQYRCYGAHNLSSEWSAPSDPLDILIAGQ
T24 sequence (Q8NHL6 other isoform, or with tags, fused parts or gaps limits assumed): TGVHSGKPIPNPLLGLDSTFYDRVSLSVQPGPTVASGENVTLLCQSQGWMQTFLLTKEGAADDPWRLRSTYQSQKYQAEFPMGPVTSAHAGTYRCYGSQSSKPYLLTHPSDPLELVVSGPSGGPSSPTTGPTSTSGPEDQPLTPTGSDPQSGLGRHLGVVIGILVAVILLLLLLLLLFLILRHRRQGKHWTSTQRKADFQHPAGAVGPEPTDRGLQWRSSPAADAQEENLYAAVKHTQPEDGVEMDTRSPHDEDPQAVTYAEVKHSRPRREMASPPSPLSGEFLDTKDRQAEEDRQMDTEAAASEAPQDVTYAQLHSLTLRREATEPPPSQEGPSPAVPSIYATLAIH
T5 sequence (chain, as listed by the source limits assumed): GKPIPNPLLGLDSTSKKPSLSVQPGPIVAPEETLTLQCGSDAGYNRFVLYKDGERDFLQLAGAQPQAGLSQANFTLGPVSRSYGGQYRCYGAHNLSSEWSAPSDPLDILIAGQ
T17 sequence (Q6PI73 other isoform, or with tags, fused parts or gaps): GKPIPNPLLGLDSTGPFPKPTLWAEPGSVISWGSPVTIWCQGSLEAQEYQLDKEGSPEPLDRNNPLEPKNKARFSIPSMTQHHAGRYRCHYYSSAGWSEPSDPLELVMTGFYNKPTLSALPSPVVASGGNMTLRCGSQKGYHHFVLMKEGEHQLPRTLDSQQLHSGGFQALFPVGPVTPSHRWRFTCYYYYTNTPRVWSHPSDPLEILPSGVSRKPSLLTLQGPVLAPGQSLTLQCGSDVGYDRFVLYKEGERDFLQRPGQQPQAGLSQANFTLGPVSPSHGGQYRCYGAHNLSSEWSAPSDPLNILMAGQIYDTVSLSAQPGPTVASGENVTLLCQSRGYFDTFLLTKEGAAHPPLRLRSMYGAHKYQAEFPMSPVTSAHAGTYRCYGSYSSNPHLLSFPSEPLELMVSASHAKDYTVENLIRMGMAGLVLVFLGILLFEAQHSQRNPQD
T1 sequence (Q8NHL6 24-650): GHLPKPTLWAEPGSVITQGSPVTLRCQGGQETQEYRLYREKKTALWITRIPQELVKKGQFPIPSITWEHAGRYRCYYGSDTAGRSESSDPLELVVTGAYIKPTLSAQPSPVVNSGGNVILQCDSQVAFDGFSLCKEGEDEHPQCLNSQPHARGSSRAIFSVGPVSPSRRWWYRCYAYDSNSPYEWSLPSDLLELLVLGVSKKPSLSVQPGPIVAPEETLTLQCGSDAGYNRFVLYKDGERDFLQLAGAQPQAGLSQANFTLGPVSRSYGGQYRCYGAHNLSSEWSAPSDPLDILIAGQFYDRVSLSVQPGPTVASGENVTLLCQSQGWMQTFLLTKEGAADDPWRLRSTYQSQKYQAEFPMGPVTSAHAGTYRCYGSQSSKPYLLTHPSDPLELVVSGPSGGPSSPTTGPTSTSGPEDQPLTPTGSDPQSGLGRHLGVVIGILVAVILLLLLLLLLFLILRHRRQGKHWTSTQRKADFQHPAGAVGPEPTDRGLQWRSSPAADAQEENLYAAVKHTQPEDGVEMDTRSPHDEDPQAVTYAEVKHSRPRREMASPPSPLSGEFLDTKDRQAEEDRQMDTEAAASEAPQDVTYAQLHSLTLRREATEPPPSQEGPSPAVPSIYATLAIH
T3 sequence (Q8NHL6 24-650): as above
T12 sequence (P59901 other isoform, or with tags, fused parts or gaps): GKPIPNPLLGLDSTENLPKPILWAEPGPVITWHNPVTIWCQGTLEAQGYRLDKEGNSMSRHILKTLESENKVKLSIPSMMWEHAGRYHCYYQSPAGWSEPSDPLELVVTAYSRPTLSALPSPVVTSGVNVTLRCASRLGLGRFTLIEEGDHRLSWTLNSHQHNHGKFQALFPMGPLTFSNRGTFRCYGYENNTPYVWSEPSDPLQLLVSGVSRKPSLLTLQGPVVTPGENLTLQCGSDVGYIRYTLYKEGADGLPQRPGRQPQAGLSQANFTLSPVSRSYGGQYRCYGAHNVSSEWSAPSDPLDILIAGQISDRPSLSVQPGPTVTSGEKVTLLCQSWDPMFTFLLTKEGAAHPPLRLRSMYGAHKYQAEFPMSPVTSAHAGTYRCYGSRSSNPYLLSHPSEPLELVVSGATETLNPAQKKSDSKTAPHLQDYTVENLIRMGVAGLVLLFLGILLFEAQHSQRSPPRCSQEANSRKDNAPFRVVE

B1: 26D8 (antibody, human IgG1, V domains shown)
VH: QVQLQQSGAELVKPGASVKLSCKASGYTFTEHTIHWIKQRSGQGLEWIGWFYPGSGSMKYNEKFKDKATLTADKSSSTVYMELTRLTSEDSAVYFCARHTNWDFDYWGQGTTLTVSS
VL: DIVLTQSPASLAVSLGQRATISCKASQSVDYGGDSYMNWYQQKPGQPPKLLIYAASNLESGIPARFSGSGSGTDLTLNIHPVEEDDAAMYYCQQSNEEPWTFGGGTKLEIK
- EC50 (read off the curve) [1]: ~0.3 µg/mL
- Kd [2]: 0.4 nM
- koff [2]: 0.00022 s⁻¹
- kon [2]: 620000 M⁻¹ s⁻¹
- CD137 expression on ILT2-positive primary NK cells [3]: 2 fold
- CD137 expression on NK cells of urothelial cancer patients with HLA-A2-expressing B cells [3]: > 2 fold
- binding result (Mutant D4-1B): binds
- binding result [4]: no binding
- EC50 [5]: 0.11 µg/mL
- binding result [6]: no binding
- binding result [7]: no binding
- binding result [8]: no binding
- binding result [9]: no binding
- EC50 (read off the curve) (Mutant D4-4): ~0.2 µg/mL
- binding result [10]: no binding
- binding result [11]: no binding
- binding result [12]: no binding
- binding result [13]: no binding
- binding result [14]: no binding
- binding result [15]: no binding
- binding result [16]: no binding
- binding result [17]: no binding
- binding result (ILT2 mutant 4-1): no binding (tested: about 20 µg/ml)
- binding result (ILT2 mutant 4-2): no binding (tested: about 20 µg/ml)
- EC50 [18]: 0.15 µg/mL

B2: 27H5 (antibody, human IgG1, V domains shown)
VH: QVQLKESGPGLVAPSQSLSITCTVSGFSLTSYGVSWVRQPPGKGLEWLGVIWGDGNTNYHSALISRLSISKDNSKSQVFLKLNSLQTDDTATYYCARTNWDGWFAYWGQGTLVTVSA
VL: DIVMTQSHKFMSTSVGDRVSITCKASQDVGTAVAWYQQKPGQSPKLLIYWASTRHTGVPDRFTGSGSGTDFTLTISNVQSEDLADYFCQQYRSYPLGTFGGGTKLEIK
- binding result [4]: no binding
- binding result [19]: no binding
- binding result [8]: no binding
- binding result [9]: no binding
- binding result [20]: no binding
- binding result (ILT2 mutant 2): no binding (tested: about 20 µg/ml)
- binding result [21]: no binding
- binding result [11]: no binding
- binding result [12]: no binding
- binding result [13]: no binding
- binding result [14]: no binding
- binding result [15]: no binding
- binding result [16]: no binding
- binding result [17]: no binding
- binding result (ILT2 mutant 1): binds
- EC50 [18]: 0.52 µg/mL
- Kd [22]: 13.9 nM

B4: 3A7A (antibody, human IgG1, V domains shown)
VH: QVQLKESGPELVKPGTSVKISCKASGYNFRNYYIQWVKQRPGQGLEWIGWIFPGNNETNYNEKFKGKATLSADTSSTTAYMQLSSLTSEDSAVYFCARSWNYDARWGYWGQGTTVTVSS
VL: DVVMTQTPASLAVSLGQRATISCRASEIIDNYGISFIHWYQQKPGQPPKLLIYRASNLESGIPARFSGSGSRTDSTLTINPVGADDVATYYCQQSNEDPFTFGSGTKLELK
- binding result [23]: no binding
- binding result [8]: no binding

Results, then the binder that gave them:

- koff [2]: 0.0003 s⁻¹
- binding result (Mutant D4-1B): binds
- binding result [4]: no binding
- EC50 [5]: 0.33 µg/mL
- binding result [6]: no binding
- binding result [7]: no binding
- binding result [8]: no binding
- binding result [9]: no binding
- binding result (Mutant D4-4): binds
- binding result [10]: no binding
- binding result [11]: no binding
- binding result [12]: no binding
- binding result [13]: no binding
- binding result [14]: no binding
- binding result [15]: no binding
- binding result [16]: no binding
- binding result [17]: no binding
- EC50 (read off the curve) (ILT2 mutant 4-1): ~0.4 µg/mL
- binding result (ILT2 mutant 4-2): binds
- EC50 [18]: 0.25 µg/mL
B3: 27C10 (antibody, human IgG1, V domains shown)
VH: EVQLQESGPGLVKPSQSLSLTCSVTGYSITSGYYWNWIRQFPENKLEWMGYIRYDGSNNYNPSLNNRISITRDASKNQFFLKLNSVTTEDTATYYCARGWLLWFYAVDYWGQGTSVTVSS
VL: DVVMTQTPLSLPVSLGDQASISCRSSQSIVHTNGNTYLEWYLQKSGQSPKLLIYKVSNRLSGVPDRFSGSGSGTDFTLKISRVEAEDLGIYYCFQGSHVPWTFGGGTKLEIK

- binding result [23]: no binding
- binding result [8]: no binding
B5: 1E4C (antibody, human IgG1, V domains shown)
VH: QRELQQSGPELVKPGASVNISCKASGYSFTNHYINWVKQRPGQGLEWIGWIFPGNGDTNYNEKFKGKATLTADTSSSTAYMQLSSLTSEDSAVYFCARTWNYDARWGYWGQGTTVTVSS
VL: DVVMTQTPAFLAVSLGQRATISCRASESIDSYGISFMHWYQQKPGQPPKVLIYRTSNLESGIPARFSGSGSRTDFTLTINPVEADDVATYYCQQSNEDPFTFGSGTKLEIK

Source: patent US20220025056A1 (INNATE PHARMA, published 2022)
